In the Immune Epitope Database (IEDB):

Tests used:
Experiment in all cases: IEDB peptide-MHC binding, purified MHC/competitive/fluorescence; filed as Kd, often an IC50 or EC50 that approximates it; ≥ and ≤ were set here for values at or beyond the usual limits of such assays
Conditions in all cases: source organism: Salmonella enterica subsp. enterica serovar Typhi
HLA-B*45:06 = target: HLA-B*45:06
HLA-C*14:02 = target: HLA-C*14:02
HLA-B*27:05 = target: HLA-B*27:05
HLA-B*51:01 = target: HLA-B*51:01
HLA-B*57:01 = target: HLA-B*57:01
HLA-A*25:01 = target: HLA-A*25:01
HLA-B*39:01 = target: HLA-B*39:01
HLA-A*02:01 = target: HLA-A*02:01
HLA-A*69:01 = target: HLA-A*69:01
HLA-B*15:09 = target: HLA-B*15:09
HLA-A*03:19 = target: HLA-A*03:19
HLA-A*31:01 = target: HLA-A*31:01
HLA-A*02:06 = target: HLA-A*02:06
HLA-C*06:02 = target: HLA-C*06:02
HLA-A*11:01 = target: HLA-A*11:01
HLA-A*68:23 = target: HLA-A*68:23
HLA-B*18:01 = target: HLA-B*18:01
HLA-A*30:01 = target: HLA-A*30:01
HLA-B*58:01 = target: HLA-B*58:01
HLA-B*38:01 = target: HLA-B*38:01
HLA-B*15:42 = target: HLA-B*15:42
HLA-A*03:01 = target: HLA-A*03:01
HLA-B*15:17 = target: HLA-B*15:17
HLA-B*44:02 = target: HLA-B*44:02

SVIDHIHYM
Kd (HLA-B*45:06): ≥ 5000 nM | Kd (HLA-C*14:02): 38.4 nM | Kd (HLA-B*27:05): ≥ 20000 nM | Kd (HLA-B*51:01): ≥ 20000 nM | Kd (HLA-B*57:01): 1530 nM | Kd (HLA-A*25:01): 13.7 nM | Kd (HLA-B*39:01): 2800 nM | Kd (HLA-A*02:01): 4.9 nM | Kd (HLA-A*69:01): 0.6 nM | Kd (HLA-B*15:09): ≥ 20000 nM | Kd (HLA-A*03:19): 982 nM | Kd (HLA-A*31:01): 231 nM | Kd (HLA-A*02:06): ≤ 1 nM | Kd (HLA-C*06:02): 26 nM | Kd (HLA-A*11:01): 71.7 nM | Kd (HLA-A*68:23): 0.2 nM | Kd (HLA-B*18:01): ≥ 20000 nM | Kd (HLA-A*30:01): ≥ 20000 nM | Kd (HLA-B*58:01): 290 nM | Kd (HLA-B*38:01): ≥ 20000 nM | Kd (HLA-B*15:42): ≥ 5000 nM | Kd (HLA-A*03:01): ≥ 20000 nM | Kd (HLA-B*15:17): 50 nM | Kd (HLA-B*44:02): ≥ 20000 nM
